Consider two molecules from publication PMC3378891.

Holding throughout (experiment): EMSA
Background: Mobility shift assays separate free from complexed probe on a gel.

In one data set the target is T1, FANCI (chicken, UniProt B0I564 1-1338).
T1 sequence: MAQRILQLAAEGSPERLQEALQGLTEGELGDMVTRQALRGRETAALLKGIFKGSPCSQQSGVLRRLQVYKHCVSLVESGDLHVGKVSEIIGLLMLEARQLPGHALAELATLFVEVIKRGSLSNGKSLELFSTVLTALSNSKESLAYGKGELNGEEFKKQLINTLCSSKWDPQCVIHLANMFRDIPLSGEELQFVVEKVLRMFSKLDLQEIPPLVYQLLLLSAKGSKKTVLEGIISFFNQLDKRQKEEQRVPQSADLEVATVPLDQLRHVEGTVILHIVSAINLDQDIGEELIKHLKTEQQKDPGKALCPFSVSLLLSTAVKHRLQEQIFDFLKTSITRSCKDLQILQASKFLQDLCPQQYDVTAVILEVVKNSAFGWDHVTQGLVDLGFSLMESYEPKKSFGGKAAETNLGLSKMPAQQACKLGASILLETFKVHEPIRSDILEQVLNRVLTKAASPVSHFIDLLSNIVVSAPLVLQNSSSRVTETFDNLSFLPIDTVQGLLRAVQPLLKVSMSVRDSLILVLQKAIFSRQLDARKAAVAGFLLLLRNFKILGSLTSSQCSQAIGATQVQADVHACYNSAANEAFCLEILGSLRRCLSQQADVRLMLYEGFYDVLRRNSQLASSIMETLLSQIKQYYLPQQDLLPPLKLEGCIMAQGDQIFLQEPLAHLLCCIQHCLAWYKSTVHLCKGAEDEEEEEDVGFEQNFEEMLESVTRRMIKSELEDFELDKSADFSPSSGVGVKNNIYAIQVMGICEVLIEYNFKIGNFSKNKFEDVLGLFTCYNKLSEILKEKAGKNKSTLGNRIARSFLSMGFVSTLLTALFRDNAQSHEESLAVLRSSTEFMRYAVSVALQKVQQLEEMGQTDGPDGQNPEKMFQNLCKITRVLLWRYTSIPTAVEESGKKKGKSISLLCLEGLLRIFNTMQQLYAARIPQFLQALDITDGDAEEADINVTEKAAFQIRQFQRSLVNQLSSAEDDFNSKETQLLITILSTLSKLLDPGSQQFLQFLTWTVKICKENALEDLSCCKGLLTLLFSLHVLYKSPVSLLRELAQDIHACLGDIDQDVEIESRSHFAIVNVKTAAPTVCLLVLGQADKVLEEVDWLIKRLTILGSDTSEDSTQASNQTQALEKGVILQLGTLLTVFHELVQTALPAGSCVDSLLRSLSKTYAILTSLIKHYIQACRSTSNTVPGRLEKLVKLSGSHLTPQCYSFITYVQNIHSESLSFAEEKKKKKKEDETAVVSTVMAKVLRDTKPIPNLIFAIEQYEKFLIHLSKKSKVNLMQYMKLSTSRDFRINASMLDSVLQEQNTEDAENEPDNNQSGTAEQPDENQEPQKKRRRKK

The target of another data set is FANCI;FANCD2 (chicken;chicken, UniProt B0I564;Q68Y81 1-1338;1-1439, |).
The target in a further data set is UBE2T (human, UniProt Q9NPD8 1-197).
The next data set has as its target T2, GST-FANCL (chicken, UniProt Q3MUH5 1-373).
T2 sequence: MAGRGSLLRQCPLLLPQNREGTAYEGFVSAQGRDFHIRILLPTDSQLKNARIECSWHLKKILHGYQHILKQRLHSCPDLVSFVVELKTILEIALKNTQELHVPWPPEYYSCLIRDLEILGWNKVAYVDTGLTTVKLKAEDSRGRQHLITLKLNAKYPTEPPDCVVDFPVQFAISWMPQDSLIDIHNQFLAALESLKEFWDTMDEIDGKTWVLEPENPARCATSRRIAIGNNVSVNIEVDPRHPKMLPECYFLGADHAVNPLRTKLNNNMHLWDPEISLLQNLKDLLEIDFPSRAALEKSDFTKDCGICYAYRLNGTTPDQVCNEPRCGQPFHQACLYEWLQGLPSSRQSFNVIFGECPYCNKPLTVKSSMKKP

Chain of UBE2T (Q9NPD8 whole entry): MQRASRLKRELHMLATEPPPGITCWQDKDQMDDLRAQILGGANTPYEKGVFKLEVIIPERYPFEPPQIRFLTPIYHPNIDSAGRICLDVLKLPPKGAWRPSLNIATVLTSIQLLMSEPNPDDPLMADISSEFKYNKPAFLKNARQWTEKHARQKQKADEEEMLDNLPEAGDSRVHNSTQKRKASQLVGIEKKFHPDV
Chain of FANCI;FANCD2 (Q68Y81 whole entry, one chain of several): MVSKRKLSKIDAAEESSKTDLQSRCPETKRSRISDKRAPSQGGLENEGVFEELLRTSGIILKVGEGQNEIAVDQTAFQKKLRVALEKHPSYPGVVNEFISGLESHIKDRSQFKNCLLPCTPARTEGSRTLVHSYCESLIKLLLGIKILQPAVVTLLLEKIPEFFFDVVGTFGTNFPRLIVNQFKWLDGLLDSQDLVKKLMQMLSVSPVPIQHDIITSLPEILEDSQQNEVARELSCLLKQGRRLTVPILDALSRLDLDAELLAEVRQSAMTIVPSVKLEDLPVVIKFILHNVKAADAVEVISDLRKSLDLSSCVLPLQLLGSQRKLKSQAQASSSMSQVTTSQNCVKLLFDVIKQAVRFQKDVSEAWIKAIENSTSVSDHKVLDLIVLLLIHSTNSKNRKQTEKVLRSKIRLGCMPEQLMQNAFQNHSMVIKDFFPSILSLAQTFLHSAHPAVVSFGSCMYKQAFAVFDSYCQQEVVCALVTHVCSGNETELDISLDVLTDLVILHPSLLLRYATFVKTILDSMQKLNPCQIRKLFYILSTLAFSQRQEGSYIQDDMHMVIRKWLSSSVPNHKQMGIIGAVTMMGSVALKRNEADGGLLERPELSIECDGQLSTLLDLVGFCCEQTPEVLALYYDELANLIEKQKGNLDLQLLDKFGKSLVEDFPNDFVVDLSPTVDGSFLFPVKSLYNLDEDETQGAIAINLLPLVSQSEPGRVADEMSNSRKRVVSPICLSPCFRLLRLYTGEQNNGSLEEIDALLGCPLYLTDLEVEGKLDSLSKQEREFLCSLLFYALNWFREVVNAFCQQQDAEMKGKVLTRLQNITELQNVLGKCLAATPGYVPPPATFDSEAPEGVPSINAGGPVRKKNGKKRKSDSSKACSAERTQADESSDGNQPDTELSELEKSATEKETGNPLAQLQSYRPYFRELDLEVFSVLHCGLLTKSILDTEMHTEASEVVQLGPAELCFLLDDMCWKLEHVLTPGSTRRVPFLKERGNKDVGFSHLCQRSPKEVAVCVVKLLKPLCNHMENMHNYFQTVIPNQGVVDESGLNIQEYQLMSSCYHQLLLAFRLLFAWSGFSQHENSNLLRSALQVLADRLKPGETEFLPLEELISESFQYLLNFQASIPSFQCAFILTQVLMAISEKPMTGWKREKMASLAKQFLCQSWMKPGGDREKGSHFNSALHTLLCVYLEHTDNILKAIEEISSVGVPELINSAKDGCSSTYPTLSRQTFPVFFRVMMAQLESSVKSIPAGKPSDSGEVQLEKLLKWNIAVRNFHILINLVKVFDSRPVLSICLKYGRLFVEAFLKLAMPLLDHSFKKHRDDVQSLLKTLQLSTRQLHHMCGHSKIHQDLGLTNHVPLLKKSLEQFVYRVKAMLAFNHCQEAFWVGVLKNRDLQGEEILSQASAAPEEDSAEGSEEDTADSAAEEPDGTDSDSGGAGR

B1: synthetic Holliday junction (HJ) (structured_DNA)
DNA 1: ATCGATGTCTCTAGACAGCTGCTCAGGATTGATCTGTAATGGCCTGGGA
DNA 2: GTCCCAGGCCATTACAGATCAATCCTGAGCATGTTTACCAAGCGCATTG
DNA 3: TGATCACTTGCTAGCGTCGCAATCCTGAGCAGCTGTCTAGAGACATCGA
DNA 4: CCAATGCGCTTGGTAAACATGCTCAGGATTGCGACGCTAGCAAGTGATC
For B1, in the data set with FANCI, the binding result is “binds”.

B2: 5' flapped DNA (structured_DNA)
DNA 1: B1 DNA 1
DNA 2: B1 DNA 2
DNA 3: CAATGCGCTTGGTAAACA
For B2, the binding result in the data set with FANCI;FANCD2 is recorded as “binds”; with UBE2T it was “no binding”; in the data set with GST-FANCL, “no binding”.
